Here are results for one substance from article PMC7642186.

In the assay the target is S3–4 single-chain TCR variant (scTv) of the A6 TCR. Description: SPR.

As a reminder, the Kd is a measure of binding affinity in units of concentration. High values mean weaker binding, low ones tighter binding.

In turn, “Tax P6A variant presented by HLA-A2 (from UniProt P61769) (peptide-MHC)” had a Kd of 5 µM.
